Starred links: 1 amine or outer side, 2 acyl side, 3 side chain; linkers in the order of their positions; H or OH if unused. Positions of bridges follow the written chain, without caps; N, C: chain ends. Non-standard residues stand in square brackets, D forms with d. Groups on a side chain read outwards from the residue. Primed or numbered codes have the meaning given here. *: point of attachment. Eem = S-benzyl-cysteine-sulfone, O=C([C@H](CS(=O)(=O)Cc1ccccc1)N[*:1])[*:2]; APAc″ = 2-(4-(amino)piperidin-1-yl)acetic acid, NC1CCN(CC(=O)*)CC1; DOTA = O=C(O)CN1CCN(CC(=O)O)CCN(CC(=O)*)CCN(CC(=O)O)CC1; mXylylene = c1cc(C[*:1])cc(C[*:2])c1; NHMe2Nph = not defined here; NMeS = CN[C@@H](CO)C(=O)O; hSer = N[C@@H](CCO)C(=O)O; 2Quyl = not defined here; AGLU′ = not defined here; Orn = NCCC[C@H](N)C(=O)O; APAc = not defined here; Apr = not defined here; Bn = c1ccc(C*)cc1
Target: human carbonic anhydrase 9 (CAIX) (human, UniProt Q16790 38-459)
Assay: FACS competition on HT-29 cells, competitor tracer 3BP-2776; category A = pIC50 >8.0
Method: CAIX-expressing human HT-29 colorectal cancer cells (DSMZ, RRID: CVCL_0320) were cultured in McCoys's 5A modified medium (Biochrom, #F1015) including 10% fetal calf serum (FCS), 2 mM L-glutamine, 100 U/ml penicillin and 100 μg/mL streptomycin. Cells were detached with Accutase (Biolegend, #423201) and washed in FACS buffer (PBS including 1% FCS). Cells were diluted in FACS buffer to a final concentration of 500.000 cells per ml. 200 μL of the cell suspension were transferred to a u-shaped non-binding 96-well plate (Greiner) and cells were washed in ice-cold FACS buffer.
When biotinylated compounds were used an additional incubation step with 1 μg/mL APC-Streptavidin (Miltenyi; #130-106-791) in 50 μL FACS buffer for 30 minutes on ice was performed.
Cells were washed twice with ice-cold FACS buffer and analyzed in an Attune NxT flow cytometer (Thermo Fisher). Median fluorescence intensities (MFI) of the APC/Cy5-channel were calculated by Attune NxT software.

Binder	pIC50
{DOTA}-YCE[dP]DWLTWSC-NH2 (linker 2-11 via mXylylene; also: ['indium complexed by DOTA']) [3BP-3906]	> 8 pic50
{DOTA-APAc}-VYCE[dP]DWLTWSC-NH2 (linker 3-12 via mXylylene; reading uncertain; also: ['indium complexed by DOTA']) [3BP-3905]	> 8 pic50
Ac-VYCE[dP][Orn]WLDWSC-NH2 (linker 3-12 via mXylylene; lactam 6-9; SMILES CC(=O)N[C@H](C(=O)N[C@@H](Cc1ccc(O)cc1)C(=O)N[C@H]1CSCc2cccc(c2)CSC[C@@H](C(N)=O)NC(=O)[C@H](CO)NC(=O)[C@H](Cc2c[nH]c3ccccc23)NC(=O)[C@@H]2CC(=O)NCCC[C@H](NC(=O)[C@H]3CCCN3C(=O)[C@H](CCC(=O)O)NC1=O)C(=O)N[C@@H](Cc1c[nH]c3ccccc13)C(=O)N[C@@H](CC(C)C)C(=O)N2)C(C)C) [3BP-4005]	> 8 pic50
{DOTA-APAc}-VYCE[dP][hSer]WLTWSC-NH2 (linker 3-12 via mXylylene; reading uncertain) [3BP-4102]	> 8 pic50
{DOTA-APAc}-VYCE[dP][Eem]WLTWSC-NH2 (linker 3-12 via mXylylene; not fully specified; reading uncertain) [3BP-4123]	> 8 pic50
{DOTA}-YCE[dP]KWLEWSC-NH2 (linker 2-11 via mXylylene; lactam 5-8; SMILES CC(C)C[C@@H]1NC(=O)[C@H](Cc2c[nH]c3ccccc23)NC(=O)[C@@H]2CCCCNC(=O)CC[C@H](NC1=O)C(=O)N[C@@H](Cc1c[nH]c3ccccc13)C(=O)N[C@@H](CO)C(=O)N[C@H](C(N)=O)CSCc1cccc(c1)CSC[C@H](NC(=O)[C@H](Cc1ccc(O)cc1)NC(=O)CN1CCN(CC(=O)O)CCN(CC(=O)O)CCN(CC(=O)O)CC1)C(=O)N[C@@H](CCC(=O)O)C(=O)N1CCC[C@@H]1C(=O)N2) [3BP-3934]	> 8 pic50
Ac-VFCE[dP]DWLTWE([Apr-DOTA])C-NH2 (linker 3-12 via mXylylene; reading uncertain) [3BP-3874]	> 8 pic50
{DOTA-APAc}-VYCE[dP]DC(Bn)LTWSC-NH2 (linker 3-12 via mXylylene; not fully specified; reading uncertain) [3BP-4130]	> 8 pic50
{DOTA-APAc}-VYC[NMeS][dP]DWLTWSC-NH2 (linker 3-12 via mXylylene; reading uncertain) [3BP-4108]	> 8 pic50
{DOTA-APAc″}-VYCE[dP]E(NHMe2Nph)WLTWSC-NH2 (linker 3-12 via mXylylene; reading uncertain) [3BP-4215]	> 8 pic50
Ac-VYCE[dP]KWLEWSC-NH2 (linker 3-12 via mXylylene; lactam 6-9; SMILES CC(=O)N[C@H](C(=O)N[C@@H](Cc1ccc(O)cc1)C(=O)N[C@H]1CSCc2cccc(c2)CSC[C@@H](C(N)=O)NC(=O)[C@H](CO)NC(=O)[C@H](Cc2c[nH]c3ccccc23)NC(=O)[C@@H]2CCC(=O)NCCCC[C@H](NC(=O)[C@H]3CCCN3C(=O)[C@H](CCC(=O)O)NC1=O)C(=O)N[C@@H](Cc1c[nH]c3ccccc13)C(=O)N[C@@H](CC(C)C)C(=O)N2)C(C)C) [3BP-3890]	> 8 pic50
{DOTA-APAc}-VYCE[dE](AGLU′)DWLTWSC-NH2 (linker 3-12 via mXylylene; reading uncertain) [3BP-4119]	> 8 pic50
{DOTA-APAc}-VYCE[dP]DWLE(AGLU′)WSC-NH2 (linker 3-12 via mXylylene; reading uncertain) [3BP-4121]	> 8 pic50
{DOTA-APAc}-VYCE[dP]Y(Bn)WLTWSC-NH2 (linker 3-12 via mXylylene; not fully specified; reading uncertain) [3BP-4127]	> 8 pic50
{DOTA-APAc}-VYCE[dP]NWLTWSC-NH2 (linker 3-12 via mXylylene; reading uncertain) [3BP-4103]	> 8 pic50
{DOTA-APAc}-VYCE[dP]C(2Quyl)WLTWSC-NH2 (linker 3-12 via mXylylene; not fully specified; reading uncertain) [3BP-4129]	> 8 pic50
{DOTA-APAc}-VSCE[dP]DWLTWSC-NH2 (linker 3-12 via mXylylene; reading uncertain) [3BP-4105]	> 8 pic50
{DOTA-APAc}-VYCE[dP]DYLTWSC-NH2 (linker 3-12 via mXylylene; not fully specified; reading uncertain) [3BP-4136]	> 8 pic50
Ac-VYCE[dP]KWL[dE]WSC-NH2 (linker 3-12 via mXylylene; lactam 6-9; SMILES CC(=O)N[C@H](C(=O)N[C@@H](Cc1ccc(O)cc1)C(=O)N[C@H]1CSCc2cccc(c2)CSC[C@@H](C(N)=O)NC(=O)[C@H](CO)NC(=O)[C@H](Cc2c[nH]c3ccccc23)NC(=O)[C@H]2CCC(=O)NCCCC[C@H](NC(=O)[C@H]3CCCN3C(=O)[C@H](CCC(=O)O)NC1=O)C(=O)N[C@@H](Cc1c[nH]c3ccccc13)C(=O)N[C@@H](CC(C)C)C(=O)N2)C(C)C) [3BP-3957]	> 8 pic50
{DOTA-APAc}-VYCE[dP]C(Bn)WLTWSC-NH2 (linker 3-12 via mXylylene; not fully specified; reading uncertain) [3BP-4128]	> 8 pic50
{DOTA-APAc}-VE(AGLU′)CE[dP]DWLTWSC-NH2 (linker 3-12 via mXylylene; reading uncertain) [3BP-4112]	> 8 pic50
{DOTA-APAc}-VYCQ[dP]DWLTWSC-NH2 (linker 3-12 via mXylylene; reading uncertain) [3BP-4104]	> 8 pic50
{DOTA-APAc}-VYCE[dP]DWLTWEC-NH2 (linker 3-12 via mXylylene; not fully specified (residue 11); reading uncertain) [3BP-4122]	> 8 pic50

From patent publication US20250339569A1 (3B PHARMACEUTICALS, published 2025)
